Results taken from patent US20250320312A1 (OXITOPE PHARMA B V, published 2025).
Changes are numbered by the printed parent chain.

T1: Peptide 4: Biotin-AGGGGSGGGGSGGGGSAAA-Tyr-acid (N-terminal biotin; C-terminal acid; no PC)
T1 construct: control peptide without PC
T1 peptide: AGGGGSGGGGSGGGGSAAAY

T2: Peptide 8: Biotin-AEAAAKEAAAKEAAAKEAAAKAAA-Tyr-acid (N-terminal biotin; C-terminal acid; no PC)
T2 construct: control peptide without PC
T2 peptide: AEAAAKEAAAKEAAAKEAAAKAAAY

B1: PcOxP_DB01_B06 (scFv, V domains shown)
VH: EVQLLESGGGLVQPGGSLRLSCAASGFTFSSYYMEWVRQAPGKGLEWVAASRNKYNDYTTEYADSVKGRFTISRDNSKNTLYLQMNSLRAEDTAVYYCARDYYGSSTWYFDVWGQGTLVTVSS
VL: DIVMTQSPDSLAVSLGERATINCTASESLYSSKHKVHYLAWYQQKPGQPPKLLIYGASNRYIGVPDRFSGSGSGTDFTLTISSLQAEDVAVYYCAQFYSYPLTFGGGTKVEIK
notes: scFv in periplasmic extract
B2: PcOxP_DB01_B10 (scFv, V domains shown)
VH: B1 VH with S31D, Y32F, Y55A, E61T, T107H
VL: B1 VL with H34G, A95V
notes: scFv in periplasmic extract
B3: PcOxP_DB01_B12 (scFv, V domains shown)
VH: B1 VH with Y55G, D57S, T107Y
VL: B1 VL with A95G
notes: scFv in periplasmic extract
B4: PcOxP_DB01_C07 (scFv, V domains shown)
VH: B1 VH with S31D, Y55A, T107Y
VL: B1 VL with I62D
notes: scFv in periplasmic extract
B5: PcOxP_DB01_C09 (scFv, V domains shown)
VH: B1 VH with S31D, Y32F, Y55A, T107Y
VL: B1 VL with E27Q, L29V, H34N
notes: scFv in periplasmic extract
B6: PcOxP_DB01_C10 (scFv, V domains shown)
VH: B1 VH with S31D, Y32F, Y55A, T107Y
VL: B1 VL with A25S, E27Q, Y30L, K33S, K35N, V36K, H37N
notes: scFv in periplasmic extract
B7: PcOxP_DB01_D01 (scFv, V domains shown)
VH: B1 VH with Y55A, T107Y
VL: B1 VL with S32P, S99I
notes: scFv in periplasmic extract
B8: PcOxP_DB01_D04 (scFv, V domains shown)
VH: B1 VH with S31D, Y32F, Y55A, T107Y
VL: B1 VL with Y30W
notes: scFv in periplasmic extract
B9: PcOxP_DB01_D06 (scFv, V domains shown)
VH: B1 VH with S31D, Y32F, Y55A, T107Y, V112S
VL: B1 VL with S99I
notes: scFv in periplasmic extract
B10: PcOxP_DB01_D07 (scFv, V domains shown)
VH: B1 VH with S31D, Y55A, S105D, T107Y
VL: B1 VL with T24K, E27Q, L29V, Y30L, H34N, K35N, H37N, I62S
notes: scFv in periplasmic extract
B11: PcOxP_DB01_D10 (scFv, V domains shown)
VH: B1 VH with F29D, S31D, Y32F, Y55A, T107Y
VL: B1 VL
notes: scFv in periplasmic extract
B12: PcOxP_DB01_D11 (scFv, V domains shown)
VH: B1 VH with Y55A, T107Y, F110N
VL: B1 VL with H34W
notes: scFv in periplasmic extract
B13: PcOxP_DB01_D12 (scFv, V domains shown)
VH: B1 VH with S31D, T107Y
VL: B1 VL
notes: scFv in periplasmic extract
B14: PcOxP_DB01_E01 (scFv, V domains shown)
VH: B1 VH with F29S, S31D, Y32F, Y55A, T107Y
VL: B1 VL with Y61V, Q96N
notes: scFv in periplasmic extract
B15: PcOxP_DB01_E02 (scFv, V domains shown)
VH: B1 VH with S31D, Y55G, T107Y
VL: B1 VL
notes: scFv in periplasmic extract
B16: PcOxP_DB01_E03 (scFv, V domains shown)
VH: B1 VH with T28G, S31D, Y32F, A49G, Y55H, T107Y
VL: B1 VL with T24K, A25S, L29V, V36K
notes: scFv in periplasmic extract
B17: PcOxP_DB01_E07 (scFv, V domains shown)
VH: B1 VH with Y55A, T107Y
VL: B1 VL with H37D
notes: scFv in periplasmic extract
B18: PcOxP_DB01_E08 (scFv, V domains shown)
VH: B1 VH with F27D, S31D, Y32F, Y55A, D57A, S105Q, T107Y
VL: B1 VL
notes: scFv in periplasmic extract
B19: PcOxP_DB01_E09 (scFv, V domains shown)
VH: B1 VH with F27N, S31D, Y32F, Y55A, T107Y
VL: B1 VL with Q96N
notes: scFv in periplasmic extract
B20: PcOxP_DB01_F01 (scFv, V domains shown)
VH: B1 VH with T28P, S31D, Y32F, Y55A, S106P, T107Y
VL: B1 VL with L29V, H34N, V36K, S99T
notes: scFv in periplasmic extract
B21: PcOxP_DB01_F03 (scFv, V domains shown)
VH: B1 VH with S31D, Y32S, T107Y
VL: B1 VL
notes: scFv in periplasmic extract
B22: PcOxP_DB01_F06 (scFv, V domains shown)
VH: B1 VH with F27D, S31D, Y32F, Y55A, T107Y
VL: B1 VL with T24K, A25S, E27Q, S31Y, K33S, H34N, V36K, H37N, I62G, S99R
notes: scFv in periplasmic extract
B23: PcOxP_DB01_F07 (scFv, V domains shown)
VH: B1 VH with F27D, S31D, Y32F, M34L, Y55A, D57G, G104H, T107Y
VL: B1 VL with Q96H
notes: scFv in periplasmic extract
B24: PcOxP_DB01_F08 (scFv, V domains shown)
VH: B1 VH with S31D, Y32G, Y55W, T107Y
VL: B1 VL with I62S
notes: scFv in periplasmic extract
B25: PcOxP_DB01_F11 (scFv, V domains shown)
VH: B1 VH with Y55A, T107Y, F110Y
VL: B1 VL
notes: scFv in periplasmic extract
B26: PcOxP_DB01_F12 (scFv, V domains shown)
VH: B1 VH with F29H, S31D, Y32F, Y55A, D57G, T107Y, V112S
VL: B1 VL with I62V
notes: scFv in periplasmic extract
B27: PcOxP_DB01_G02 (scFv, V domains shown)
VH: B1 VH with T28L, S31D, Y32F, Y55A, E61T, S106H, T107Y
VL: B1 VL with Y61E, S99F
notes: scFv in periplasmic extract
B28: PcOxP_DB01_G03 (scFv, V domains shown)
VH: B1 VH with S31D, Y32G, Y55A, T107Y
VL: B1 VL with E27T, S99T
notes: scFv in periplasmic extract
B29: PcOxP_DB01_G04 (scFv, V domains shown)
VH: B1 VH with S31D, Y32G, Y55A, T107Y
VL: B1 VL with I62S
notes: scFv in periplasmic extract
B30: PcOxP_DB01_G05 (scFv, V domains shown)
VH: B1 VH with Y55A, D57E, T107Y
VL: B1 VL with Q96N
notes: scFv in periplasmic extract

Molecular target: T1, Peptide 4: …
Experiment: scFv ELISA
How it was run: (§1)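 Bound scFv was read as OD450 after HRP–anti-V5 detection, TMB development and HCl stop. PPE with BSA was incubated 1 h at RT on BSA-blocked wells coated overnight at 4° C. with peptide, or on streptavidin wells loaded 1 h with biotinylated PC-peptides at 1 μg/mL.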

| Binder | OD450 [OD450] |
| --- | --- |
| B1 | 0.05 |
| B2 | 0.05 |
| B3 | 0.06 |
| B4 | 0.04 |
| B5 | 0.05 |
| B6 | 0.04 |
| B7 | 0.05 |
| B8 | 0.08 |
| B9 | 0.04 |
| B10 | 0.04 |
| B11 | 0.05 |
| B12 | 0.06 |
| B13 | 0.05 |
| B14 | 0.05 |
| B15 | 0.05 |
| B16 | 0.05 |
| B17 | 0.05 |
| B18 | 0.05 |
| B19 | 0.04 |
| B20 | 0.05 |
| B21 | 0.07 |
| B22 | 0.04 |
| B23 | 0.04 |
| B24 | 0.04 |
| B25 | 0.07 |
| B26 | 0.05 |
| B27 | 0.05 |
| B28 | 0.05 |
| B29 | 0.05 |
| B30 | 0.05 |

Molecular target: T2, Peptide 8: …
Experiment: scFv ELISA
How it was run: as §1

| Binder | OD450 [OD450] |
| --- | --- |
| B1 | 0.05 |
| B2 | 0.04 |
| B3 | 0.05 |
| B4 | 0.04 |
| B5 | 0.05 |
| B6 | 0.04 |
| B7 | 0.04 |
| B8 | 0.06 |
| B9 | 0.04 |
| B10 | 0.04 |
| B11 | 0.04 |
| B12 | 0.05 |
| B13 | 0.05 |
| B14 | 0.04 |
| B15 | 0.05 |
| B16 | 0.05 |
| B17 | 0.05 |
| B18 | 0.04 |
| B19 | 0.04 |
| B20 | 0.05 |
| B21 | 0.08 |
| B22 | 0.04 |
| B23 | 0.04 |
| B24 | 0.04 |
| B25 | 0.05 |
| B26 | 0.05 |
| B27 | 0.04 |
| B28 | 0.05 |
| B29 | 0.07 |
| B30 | 0.05 |

molecular target: Peptide 1: Biotin-…-[Tyr(PC)]-acid; experiment: scFv ELISA

| Binder | OD450 [OD450] |
| --- | --- |
| B1 | 0.79 |
| B2 | 0.52 |
| B3 | 0.56 |
| B4 | 0.53 |
| B5 | 0.27 |
| B6 | 0.13 |
| B7 | 0.85 |
| B8 | 0.45 |
| B9 | 0.41 |
| B10 | 0.14 |
| B11 | 0.15 |
| B12 | 1.37 |
| B13 | 0.85 |
| B14 | 0.75 |
| B15 | 0.46 |
| B16 | 0.86 |
| B17 | 0.87 |
| B18 | 0.47 |
| B19 | 0.77 |
| B20 | 0.6 |
| B21 | 0.8 |
| B22 | 0.12 |
| B23 | 0.31 |
| B24 | 0.52 |
| B25 | 1.55 |
| B26 | 0.76 |
| B27 | 0.82 |
| B28 | 0.43 |
| B29 | 0.56 |
| B30 | 0.69 |

molecular target: BSA (UniProt P02769); experiment: scFv ELISA
Sequence (P02769 25-607 limits assumed): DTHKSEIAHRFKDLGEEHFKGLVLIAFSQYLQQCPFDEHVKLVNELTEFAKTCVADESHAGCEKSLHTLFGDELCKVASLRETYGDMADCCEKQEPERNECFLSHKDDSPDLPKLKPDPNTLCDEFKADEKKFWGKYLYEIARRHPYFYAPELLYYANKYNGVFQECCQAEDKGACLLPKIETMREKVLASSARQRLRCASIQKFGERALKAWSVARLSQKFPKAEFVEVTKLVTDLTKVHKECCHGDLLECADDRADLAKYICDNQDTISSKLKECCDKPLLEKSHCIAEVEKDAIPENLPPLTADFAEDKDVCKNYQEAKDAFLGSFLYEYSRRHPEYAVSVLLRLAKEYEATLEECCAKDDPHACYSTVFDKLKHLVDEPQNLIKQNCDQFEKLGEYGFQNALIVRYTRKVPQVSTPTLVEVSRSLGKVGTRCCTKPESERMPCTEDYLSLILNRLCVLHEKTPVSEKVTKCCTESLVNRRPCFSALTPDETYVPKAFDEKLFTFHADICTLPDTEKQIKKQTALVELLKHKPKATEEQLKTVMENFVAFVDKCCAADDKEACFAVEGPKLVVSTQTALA

| Binder | OD450 [OD450] |
| --- | --- |
| B1 | 0.08 |
| B2 | 0.08 |
| B3 | 0.09 |
| B4 | 0.05 |
| B5 | 0.07 |
| B6 | 0.07 |
| B7 | 0.06 |
| B8 | 0.07 |
| B9 | 0.06 |
| B10 | 0.05 |
| B11 | 0.06 |
| B12 | 0.08 |
| B13 | 0.06 |
| B14 | 0.05 |
| B15 | 0.07 |
| B16 | 0.08 |
| B17 | 0.07 |
| B18 | 0.06 |
| B19 | 0.06 |
| B20 | 0.08 |
| B21 | 0.08 |
| B22 | 0.07 |
| B23 | 0.06 |
| B24 | 0.06 |
| B25 | 0.07 |
| B26 | 0.06 |
| B27 | 0.06 |
| B28 | 0.07 |
| B29 | 0.07 |
| B30 | 0.08 |

molecular target: Peptide 5: Biotin-…-[Tyr(PC)]-acid; experiment: scFv ELISA

| Binder | OD450 [OD450] |
| --- | --- |
| B1 | 1.45 |
| B2 | 1.11 |
| B3 | 1.19 |
| B4 | 1.1 |
| B5 | 0.94 |
| B6 | 0.53 |
| B7 | 1.12 |
| B8 | 0.87 |
| B9 | 0.69 |
| B10 | 0.6 |
| B11 | 0.44 |
| B12 | 2.09 |
| B13 | 1.48 |
| B14 | 1.48 |
| B15 | 1.02 |
| B16 | 1.54 |
| B17 | 1.51 |
| B18 | 0.82 |
| B19 | 1.26 |
| B20 | 1.78 |
| B21 | 1.41 |
| B22 | 0.53 |
| B23 | 0.81 |
| B24 | 1.22 |
| B25 | 1.92 |
| B26 | 1.43 |
| B27 | 1.2 |
| B28 | 0.94 |
| B29 | 1.01 |
| B30 | 1.24 |
